According to patent US20120315267A1 (GlaxoSmithKline, published 2012):

T1: human ENA-78 (human, UniProt P42830 37-114, limits assumed)
T1 sequence (looked up): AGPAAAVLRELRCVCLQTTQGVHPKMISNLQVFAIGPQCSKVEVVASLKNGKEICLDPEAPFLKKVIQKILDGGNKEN

T2: human IL-8 (human, UniProt P10145 28-99, limits assumed)
T2 sequence (looked up): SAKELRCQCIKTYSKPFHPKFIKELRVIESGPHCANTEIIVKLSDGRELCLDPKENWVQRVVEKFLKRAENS

T3: human NAP2 (human, UniProt P02775 59-128)
T3 sequence (looked up): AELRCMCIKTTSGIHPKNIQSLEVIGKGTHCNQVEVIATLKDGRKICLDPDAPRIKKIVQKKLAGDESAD

T4: human Gro-beta (human, UniProt P19875 35-107)
T4 sequence (looked up): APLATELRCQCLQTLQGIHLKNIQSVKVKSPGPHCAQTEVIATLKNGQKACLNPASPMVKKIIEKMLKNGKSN

T5: human Gro-alpha (human, UniProt P09341 35-107)
T5 sequence (looked up): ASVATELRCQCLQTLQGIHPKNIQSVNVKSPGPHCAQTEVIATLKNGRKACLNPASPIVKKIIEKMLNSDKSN

T6: human Gro-gamma (human, UniProt P19876 35-107)
T6 sequence (looked up): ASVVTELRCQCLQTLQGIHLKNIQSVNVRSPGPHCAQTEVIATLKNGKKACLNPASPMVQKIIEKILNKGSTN

T7: human GCP-2 (human, UniProt P80162 38-114, limits assumed)
T7 sequence (looked up): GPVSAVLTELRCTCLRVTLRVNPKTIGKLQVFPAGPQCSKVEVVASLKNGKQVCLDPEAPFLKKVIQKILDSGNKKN


Experiments:
Assay in all cases: cell-based or functional assay
human ENA-78 = target: T1, human ENA-78
human IL-8 = target: T2, human IL-8
human NAP2 = target: T3, human NAP2
human Gro-beta = target: T4, human Gro-beta
human Gro-alpha = target: T5, human Gro-alpha
human Gro-gamma = target: T6, human Gro-gamma
human GCP-2 = target: T7, human GCP-2

| FLIPR IC50 (human ENA-78) | FLIPR IC50 (human IL-8) | FLIPR IC50 (human NAP2) | FLIPR IC50 (human Gro-beta) | FLIPR IC50 (human Gro-alpha) | FLIPR IC50 (human Gro-gamma) | FLIPR IC50 (human GCP-2) | Binder |
| --- | --- | --- | --- | --- | --- | --- | --- |
| 4.99 µg/mL | > 67 µg/mL | > 67 µg/mL | 1.12 µg/mL | 2.06 µg/mL | 7.43 µg/mL | > 67 µg/mL | 2X352.3 (antibody, IgG1, V domains shown) VH: QIQLVQSGPELKKPGETVKISCKASGYTLTYYGIHWVTQTPGKGLNWMGWINTNTGEPTYVEEFKGRFAFSLETSASTAYLQITDLKNEDTATYFCAKATYDGYSDYWGQGTTLTVSS VL: DIQMTQSPASLSVSVGESVTITCRASENIYSNLAWYQQKQGKSPQLLVYDATNLAHGVPSRFSGSGSGTQFSLRINSLQSEDFGSYYCQHFWGTPLTFGAGTRLELK |
| 2.6 µg/mL | > 67 µg/mL | > 67 µg/mL | > 67 µg/mL | > 67 µg/mL | > 67 µg/mL | > 67 µg/mL | 2X907.15 (antibody, IgG1, V domains shown) VH: EVKLVESGGGLVKPGGSLKLSCAASGFTFSDYYMYWVRQSPEKRLEWVATVSDVGSYTYYSGSVRGRFTISRDNAKNNLYLQMSSLQSEDTAIYYCSRDRTLDYWGQGTSVIVTS VL: QIVLTQSPAIMSASPGEKVTITCNASSSVSYMHWFQQKPGTSPKLWIYSTSNLASGVPARFSGSGSGTSYSLTISRMEAEDAATYYCHQRSSFPPTFGGGTKLEIK |
| 14.4 µg/mL | 3.4 µg/mL | > 67 µg/mL | > 67 µg/mL | > 67 µg/mL | > 67 µg/mL | 6.6 µg/mL | 9D12.1H4 (antibody, IgG1, V domains shown) VH: EVQLQQSGPELVKPGASVRMSCKASGNTVIDYNIHWVKQSQGKSLEWIGYINPNSGGTGYNEKFKDKATLTINKSSSTAHMDLRSLTSEDSAVYYCTRFDFWGQGTTLTVSS VL: DVLMTQTPLSLPVSLGDQASISCRSTQSIVPVNGNTHLEWYLHKPGQSPKLLIYKVSNRFSGVPDRFSGSGSGTDFTLKISRVEAEDLGVYYCFQASHVPWTFGGGTKLEIK |
| 2.4 µg/mL | > 200 µg/mL | > 200 µg/mL | > 200 µg/mL | 9.9 µg/mL | > 200 µg/mL | 124 µg/mL | 7A12.1F10 (antibody, IgG1, V domains shown) VH: QVQLQQSGAELVKPGASVKLSCKASGYIFTSNDINWVRQRPEQGLEWIGWIFPGDNSTKFNEKFRDKATLTTDKSSSTAYMQLSGLTSEDSAVYFCATFYGSTYGYYFDYWGQGTTLTVSS VL: DIVMTQSHKFMSTSVGDRVSITCKASQDVGTAVAWYQQKPGQSPKLLIYWTDTRHTGVPDRFTGSGSGTDFTLTISNVESEDCVDYFCHQYNNYPLTFGAGTKLELK |
| 14.6 µg/mL | > 67 µg/mL | > 67 µg/mL | > 67 µg/mL | > 67 µg/mL | > 67 µg/mL | 24.6 µg/mL | 2X810.3 (antibody, IgG1, V domains shown) VH: QIQLQQSGPEVVKPGASVKISCKASGYIFTDNYIDWVQQRPGQGLEWIGWIFPGSGNTKYNEKFKGKATLTVDTFSSTAYMQLSSLTSEDTAVYFCAREIDYDYDGFFDVWGAGTTVTVSS VL: DIVMTPSHTFMSTSVGDRVIITSKASQDVGSAVAWYQQKPGQSPTLLIYWASTRHTGVPDRFTGSGSGTDFTLTISNLQSEDLADYFCQQYSTYPLTFGAGTKLELK |
| > 67 µg/mL | > 67 µg/mL | > 67 µg/mL | 0.69 µg/mL | > 67 µg/mL | > 67 µg/mL | > 67 µg/mL | 1L132.23 (antibody, IgG1, V domains shown) VH: QVQLQQPGAELVKPGASVKVSCKASGYTFTNYWMHWVRQRPGQGLEWIGRIHPSDNDTNYNQKFKDKATLTVDKSSNTAYMQLSSLTSEDSAVYYCAIGVYDGFIGLWGQGTSVTVSS VL: DIQMTQSPASQSASLGESVTITCLASQTIGTWLAWYQQKPGKSPQLLIYAATRLADGVPSRFSGSGSGTKFSFKISSLQAEDFVSYYCQQLSSTPWTFGGGTKLEIK |
| 4.7 µg/mL | > 200 µg/mL | > 200 µg/mL | 77.4 µg/mL | > 200 µg/mL | > 200 µg/mL | > 200 µg/mL | 5D2.2D10 (antibody, V domains shown) VH: QIQLVQSGPELKKPGETVKISCKASGYIFTAYGMSWVKQAPGKGLKWMGWINTYSGVPTYADHFKGRFDFSLETSASTAYLQINNLKNEDTATYFCARPTVVDPWYFDVWGTGTTVTVSS VL: DIQMTQSPASLSVSVGETVTITCRASENIYSNLAWYQQKQGKSPQLLVYAATNLGDGVPSRFSGSGSGTQYSLKINSLQSEDFGSYYCQHFWTTPWTFGGGTKLEIK |
| > 67 µg/mL | 1.6 µg/mL | > 67 µg/mL | > 65.5 µg/mL | > 67 µg/mL | > 67 µg/mL | 40.9 µg/mL | 2B12.1E1 (antibody, IgG2c, V domains shown) VH: EVQLQQSGPELVKPGASVKISCKASGYTFTDYYMNWVKQSHGKSLEWIGDINPNNGNTNYNQKFKGKATLTVDKSSSTAYMEFRSLTSEDSAVYYCAGLGRIFDYWGQGTTLTVSS VL: ENVLTQSPAIMSASPGEKVTMTCRASSSVSSTFLHWYQQKSGASPKLWIYSTSDLASGVPARFSGSGSGTSYSLTISSVEAEDAATYYCQQYSGYPWTFGGGTKLEIK |
| > 67 µg/mL | > 67 µg/mL | > 67 µg/mL | 1.02 µg/mL | 1.92 µg/mL | 3.17 µg/mL | > 67 µg/mL | 1L351.17 (antibody, IgG2b, V domains shown) VH: QAYLQQSGAELVRPGASVKMSCKASGYTFTSYNMHWVKQTPRQGLEWIGAIYPGNGDTSYNQKFKGKATLTVDKSSSTAYMQLSSLTSEDSAVYFCARDLYYFDYWGQGTTLTVSS VL: ENVLTQSPAIMSAFPGEKVTMTCRASSSVSSTYLHWYQQKSGASPKLWIYSTSDLASGVPARFSGSGSGTSYSLTISSVEAEDAATYYCQQFSGYPWTFGGGTKLEIK |
| > 200 µg/mL | 2.5 µg/mL | > 200 µg/mL | 81.6 µg/mL | > 146 µg/mL | 144 µg/mL | > 200 µg/mL | 17D1.1D2 (antibody, IgG2c, V domains shown) VH: EVQLQQSGPELVKPGASVKISCKASGYTFTDYYMNWLRQSHGKSLEWIGDINPNNGGTNYNQKFKNKATLTVDKSSSTAYMELRSLTSEDSAVFYCAGLGRIFDYWGQGTTLTVSS VL: ENVLTQSPAIMSAFPGEKVTMTCRASSSVSSTYLHWYQQKSGASPKLWIYSTSDLASGVPARFSGSGSGTSYSLTISSVEAEDAATYYCQQFSGYPWTFGGGTKLEIK |
| 12.3 µg/mL | > 200 µg/mL | 123 µg/mL | > 168 µg/mL | 2.4 µg/mL | 19.2 µg/mL | 11.2 µg/mL | 1A1.4C6 (antibody, IgG1, V domains shown) VH: EVQLQQSGPELVKPGASVKISCKASGYTFIDYYMNWVKQSQGKSLEWIGDVNPDDGDTTYNQQFKDKATLTVDKSSSTAYMELRSLTSEDSAVYYCARDDRTSGYFDVWGTGTTVTVSS VL: DIQMTQSTSSLSASLGDRVTISCRASQDIRNYLNWFQQKPDGTVKLLIYYTSIVHSRVPSRFSGSGSGTDYSLTINNLDQEDIATYFCQQANTLPWTFGGGTKLETK |
